No end group written: not given here. FAM = carboxyfluorescein

What all share (conditions): both partners purified
For assay [1], the target named is T1, purified HDM2 (1–125) (human, UniProt Q00987 1-125).
T1 construct: source: expressed as GST fusion (pGEX-6P-1), purified (GSTrap, on-column cleavage with precission protease, monoS)
The assay is described as follows: fluorescence polarisation; competition: 50 nM FAM-12-1 peptide, 250 nM HDM2 (1–125), competitors TH2/TH3 (50/200/600 µM), control peptide (600 µM), Nutlin-3 (200 µM), p53 peptide; PBS-0.005% Tween-20. Background: Polarisation of emitted light reports the rotation of a fluorescent probe.

Assay [2] deals with T1, purified HDM2 (1–125). The experiment in a line: pull-down; biotinylated peptides (10 µg) on streptavidin Dynabeads M-280, incubated with purified HDM2 (1–125) (15 µM) or TCTP (15 or 30 µM) 4 h at 4°C; Western blot; repeated with DMSO or Nutlin-3 (2/20/200 µM). On the technique in general: Immunoblotting shows a protein as a band on a membrane.
Assay [3] has as its target T2, recombinant full-length TCTP, purified (human (cDNA from AGS cells), UniProt P13693 1-172).
T2 construct: TCTP, called recombinant full-length TCTP; also called recombinant TCTP; TCTP protein; source: expressed as GST fusion (pGEX-6P-1), purified (GSTrap, on-column cleavage with precission protease, monoQ)
T2 sequence (looked up): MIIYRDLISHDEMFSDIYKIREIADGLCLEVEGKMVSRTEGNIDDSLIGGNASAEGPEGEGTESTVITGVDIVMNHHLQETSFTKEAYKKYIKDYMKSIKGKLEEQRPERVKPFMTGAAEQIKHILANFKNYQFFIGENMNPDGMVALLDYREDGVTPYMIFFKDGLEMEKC
Described as above.

The target in assay [4] is T2, recombinant full-length TCTP, purified. The experiment in a line: pull-down; cobalt beads coated with 20 µM his-tagged HDM2 (17–125), 4 h at 4°C with 7 µM TCTP protein, with or without 200 µM Nutlin-3; Western blot.

B1: carboxyfluorescein (FAM) labeled 12-1 peptide (peptide)
peptide: {FAM}-RFMDYWEGL-NH2
notes: also called FAM-labeled p53 peptide (12.1); fluorescently labelled p53 peptide
For the molecule B1, the binding result in assay [1] was “binds”.

B2: TH2 peptide (TCTP residues 81–110) (peptide)
peptide: GGGSTSFTKEAYKKYIKDYMKSIKGKLEEQRPER
modifications: also: biotin, position not given here
notes: spacer at the N-terminus; TCTP residues 81-110; source: synthetic peptide (Mimotopes)
Consider B2, for which the binding result in assay [2] was “binds”.

B3: TH3 peptide (TCTP residues 107–133) (peptide)
peptide: GGGSRPERVKPFMTGAAEQIKHILANFKNYQ
modifications: also: biotin, position not given here
notes: spacer at the N-terminus; source: synthetic peptide (Mimotopes)
For B3, the binding result in assay [2] is reported as “binds”.

B4: HDM2 α2 helix peptide (residues 43–65) (peptide)
peptide: GGGSAQKDTYTMKEVLFYLGQYIMTKR
modifications: biotin (position not given)
notes: spacer at the N-terminus; HDM2 α2 helix, residues 43-65; source: synthetic peptide (Mimotopes)
For B4, the binding result in assay [3] is given as “binds”.

B5: recombinant his-tagged HDM2 (residues 17–125) (domain or fragment, human, UniProt Q00987 17-125, looked up)
chain: SQIPASEQETLVRPKPLLLKLLKSVGAQKDTYTMKEVLFYLGQYIMTKRLYDEKQQHIVYCSNDLLGDLFGVPSFSVKEHRKIYTMIYRNLVVVNQQESSDSGTSVSEN
notes: also called recombinant HDM2 N-terminal domain; source: recombinant
Regarding B5, the binding result in assay [4] is “binds”.
